Measured values taken from patent US20260199502A1, “BINDING MOLECULE” (priority 2022, published 2026).
Where a chain is given by its changes, count along the chain named.

B1: IBIIICI mouse scFv: known ancestral mouse scFv binding the peptide tag moiety, SEQ ID NO:25 (protein, listed as Mus musculus)
scFv: EVRLLQSGAALVRPGASVKLSCTASGFNIKDFNIHWVKQRPEQGLEWIGRIDPENGDAEYVPKFQVRATMTTDTSSNTVYLHLSSLTSGDTAVYYCTTGSYDLDVEYWGQGTTLTVSSGGGGSGGGGSGGGGSGGGGSELQMTQSPSSLSASLGDTVTITCHASQNINVWLSWYQQRPGNIPKLLIYKASTLHTGVPSRFRGSGSGTGFTLTISSLQPEDIATYYCQQGQSYPLTFGAGTKLELK
B2: IBIIICI CDR graft scFv variant NG (wt): original humanized IBIIICI CDR graft scFv, SEQ ID NO:54, NG at positions 62-63 of VH (protein)
scFv: QVQLVQSGAEVKKPGASVKVSCKASGFNIKDFNIHWVRQAPGQGLEWIGRIDPENGDAEYVPKFQGRVTMTRDTSTSTVYMELSSLRSEDTAVYYCTTGSYDLDVEYWGQGTLVTVSSGGGGSGGGGSGGGGSGGGGSDIQMTQSPSSLSASVGDRVTITCHASQNINVWLSWYQQKPGKAPKLLIYKASTLHTGVPSRFSGSGSGTDFTLTISSLQPEDFATYYCQQGQSYPLTFGQGTKLEIK
B3: IBIIICI CDR graft scFv variant DG: humanized scFv point mutated variant, SEQ ID NO:52 (protein)
scFv: B2 scFv with N55D
B4: IBIIICI CDR graft scFv variant QG: humanized scFv point mutated variant, SEQ ID NO:51 (protein)
scFv: B2 scFv with N55Q
B5: IBIIICI CDR graft scFv variant SG: humanized scFv point mutated variant, SEQ ID NO:49 (protein)
scFv: B2 scFv with N55S
B6: IBIIICI CDR graft scFv variant NA: humanized scFv point mutated variant, SEQ ID NO:53 (protein)
scFv: B2 scFv with G56A
B7: IBIIICI CDR graft scFv variant GG: humanized scFv point mutated variant, SEQ ID NO:50 (protein)
scFv: B2 scFv with N55G

Assays:
[1] = biological target: panel of 14 peptides (UU0024, UU0070-UU0078, UU0080-UU0083) comprising the tag moiety; experiment: SPR affinity of captured scFv against a peptide panel (Example 3); assay type: binding; settings: SPR single cycle kinetics, peptides 0.16 nM to 100 nM; to most target peptides in the tested panel
Method: Affinity measurements of the IBIIICI mouse scFv and IBIIICI CDR graft scFv variants obtained as described in Examples 1-2 were performed by SPR using a Biacore T200 instrument (GE Healthcare) and single cycle kinetics. Anti-FLAG M2 antibody (Sigma-Aldrich) was immobilized onto a Series S CM5 chip by primary amine coupling using NHS-EDC chemistry according to the manufacturer's instruction, allowing capture of the respective scFv through the FLAG tags provided by the expression vector. A 5-fold dilution series comprising of five concentrations (0.16 nM to 100 nM) of different peptides (Table 2) was sequentially injected over the flow cells, allowing binding to the captured scFv. Following a dissociation phase, regeneration of the surface was accomplished under acidic conditions using 10 mM glycine-HCl at pH 2.1. By subtracting the response curve of a surface having an anti-FLAG antibody immobilized thereto (the reference surface), response unit sensorgrams for all peptides were obtained. Data was analyzed using BIAeval v.3.1 (GE Healthcare).

[2] = Melting temperature (Tm) determination by nanoDSF; assay type: physicochemical; settings: inflection point #1, 1.0 mg/ml in PBS, 20-95° C. at 1° C./min
Method: In order to evaluate the stability of the purified scFv variants, the melting temperatures were determined by nanoDSF using a Prometheus NT.48 instrument (NanoTemper Inc). The nanoDSF technology measures the intrinsic fluorescence of a protein while it is being subjected to thermal denaturation, thereby characterizing the unfolding of the protein under native conditions.
The six purified IBIIICI CDR graft scFv variants were diluted to 1.0 mg/ml in PBS and loaded into a high sensitivity capillary (NanoTemper, #PR-C006) through capillary force. A melting temperature ramp was set to between 20° C. and 95° C., with heating at 1° C./min. Tryptophan emission was measured at 330 nm and 350 nm, and the calculated ratio was plotted against temperature to obtain melting curves for each variant. Tm values were deduced using the software PR ThermoControl (NanoTemper Inc).

| Molecule | binding affinity [1] | Tm [2] | Tm ([2]; listed as IBIIICI CDR graft scFv SG) | Tm ([2]; listed as IBIIICI CDR graft scFv NA) |
| --- | --- | --- | --- | --- |
| B1 | low nanomolar | – | – | – |
| B2 | low nanomolar | 63.4 °C | – | – |
| B3 | – | 62.4 °C | – | – |
| B4 | – | 62.2 °C | – | – |
| B5 | – | 64.3 °C | 64 °C | – |
| B6 | – | 60.8 °C | – | 61 °C |
| B7 | – | 62.6 °C | – | – |
